Stoichiometry N data for 6 substances are collected here from article PMC7295778.

For experiment [1], the target named is KirBac3.1 S129C-F135C (Cys-less background C262S, C71V, C119V), disulfide-linked (UniProt D9N164). Description: native MS; 200 mM ammonium acetate pH 8.0, 0.5% C8E4; Q-ToF and QExactive; collision-induced dissociation in the gas phase on the Q-ToF.
Experiment [2] has the same target. Kind of experiment: cross-linking; purified cysteine-pair mutants at 0.03-4 mg/ml in 20 mM TRIS pH 8.0, 150 mM KCl, 0.02% DDM; MTS-1-MTS 0.5 mM, dibromobimane 2.5 mM or CuSO4 1 mM, room temperature, 30 min; read by SDS-PAGE.
For experiment [3], the target named is KirBac3.1 S129C-F135C (Cys-less background C262S, C71V, C119V) crosslinked with MTS-1-MTS (UniProt D9N164). Description: native MS; 200 mM ammonium acetate pH 8.0, 0.5% C8E4; Q-ToF and QExactive; collision-induced dissociation in the gas phase on the Q-ToF.
Experiment [4] shares this target. Description: cross-linking; purified cysteine-pair mutants at 0.03-4 mg/ml in 20 mM TRIS pH 8.0, 150 mM KCl, 0.02% DDM; MTS-1-MTS 0.5 mM, dibromobimane 2.5 mM or CuSO4 1 mM, room temperature, 30 min; read by SDS-PAGE.
Experiment [5] deals with KirBac3.1 S129C-F135C (Cys-less background C262S, C71V, C119V) crosslinked with dibromobimane (UniProt D9N164). Kind of experiment: native MS; 200 mM ammonium acetate pH 8.0, 0.5% C8E4; Q-ToF and QExactive; collision-induced dissociation in the gas phase on the Q-ToF.
The target is the same in experiment [6]. Kind of experiment: cross-linking; purified cysteine-pair mutants at 0.03-4 mg/ml in 20 mM TRIS pH 8.0, 150 mM KCl, 0.02% DDM; MTS-1-MTS 0.5 mM, dibromobimane 2.5 mM or CuSO4 1 mM, room temperature, 30 min; read by SDS-PAGE.
For experiment [7], the target named is KirBac3.1 A133C-T136C (Cys-less background C262S, C71V, C119V) crosslinked with MTS-1-MTS (UniProt D9N164). Description: native MS; 200 mM ammonium acetate pH 8.0, 0.5% C8E4; Q-ToF and QExactive; collision-induced dissociation in the gas phase on the Q-ToF.
Experiment [8] has the same target. Kind of experiment: cross-linking; purified cysteine-pair mutants at 0.03-4 mg/ml in 20 mM TRIS pH 8.0, 150 mM KCl, 0.02% DDM; MTS-1-MTS 0.5 mM, dibromobimane 2.5 mM or CuSO4 1 mM, room temperature, 30 min; read by SDS-PAGE.
Experiment [9] deals with KirBac3.1 A133C-T136C (Cys-less background C262S, C71V, C119V), disulfide-linked (UniProt D9N164). Kind of experiment: native MS; 200 mM ammonium acetate pH 8.0, 0.5% C8E4; Q-ToF and QExactive; collision-induced dissociation in the gas phase on the Q-ToF.
Experiment [10] has the same target. Kind of experiment: cross-linking; purified cysteine-pair mutants at 0.03-4 mg/ml in 20 mM TRIS pH 8.0, 150 mM KCl, 0.02% DDM; MTS-1-MTS 0.5 mM, dibromobimane 2.5 mM or CuSO4 1 mM, room temperature, 30 min; read by SDS-PAGE.
Experiment [11] deals with KirBac3.1 A133C-T136C (Cys-less background C262S, C71V, C119V) crosslinked with dibromobimane (UniProt D9N164). Kind of experiment: native MS; 200 mM ammonium acetate pH 8.0, 0.5% C8E4; Q-ToF and QExactive; collision-induced dissociation in the gas phase on the Q-ToF.
Experiment [12] has the same target. Kind of experiment: cross-linking; purified cysteine-pair mutants at 0.03-4 mg/ml in 20 mM TRIS pH 8.0, 150 mM KCl, 0.02% DDM; MTS-1-MTS 0.5 mM, dibromobimane 2.5 mM or CuSO4 1 mM, room temperature, 30 min; read by SDS-PAGE.

In general, stoichiometry N refers to a count of units in the complex or per binding partner. Turning to “KirBac3.1 S129C-F135C (Cys-less background C262S, C71V, C119V), disulfide-linked (from UniProt D9N164 1-295) (natural protein)”, the stoichiometry N in [1] and in experiment [2] was 4 each time.
Take “KirBac3.1 S129C-F135C (Cys-less background C262S, C71V, C119V) crosslinked with MTS-1-MTS (from UniProt D9N164 1-295) (natural protein)”: the stoichiometry N in experiment [3] and in [4] was 4 each time.
As to “KirBac3.1 S129C-F135C (Cys-less background C262S, C71V, C119V) crosslinked with dibromobimane (from UniProt D9N164 1-295) (natural protein)”, the stoichiometry N in [5] and in [6] was 4 throughout.
In the case of “KirBac3.1 A133C-T136C (Cys-less background C262S, C71V, C119V) crosslinked with MTS-1-MTS (from UniProt D9N164 1-295) (natural protein)”, the stoichiometry N in [7] and in experiment [8] was 4 throughout.
“KirBac3.1 A133C-T136C (Cys-less background C262S, C71V, C119V), disulfide-linked (from UniProt D9N164 1-295) (natural protein)”: the stoichiometry N in [9] and in [10] was 4 each time.
As to “KirBac3.1 A133C-T136C (Cys-less background C262S, C71V, C119V) crosslinked with dibromobimane (from UniProt D9N164 1-295) (natural protein)”, the stoichiometry N in experiment [11] and in experiment [12] was 4 in each case.
